Results: US20150133367

Biological target: T1, SCEEVCKPGGP (SEQ ID NO:47)
T1 chain: SCEEVCKPGGP

B1: Cathepsin K (protein)
chain: APDSVDYRKKGYVTPVKNQGQCGSCWAFSSVGALEGQLKKKTGKLLNLSPQNLVDCVSENDGCGGGYMTNAFQYVQKNRGIDSEDAYPYVGQEESCMYNPTGKAAKCRGYREIPEGNEKALKRAVARVGPVSVAIDASLTSFQFYSKGVYYDESCNSDNLNHAVLAVGYGIQKGNKHWIIKNSWGENWGNKGYILMARNKNNACGIANLASFPKM
Q: For B1, which “cleavage of the peptide by the enzyme” value is on record?
A: This peptide did not inhibit cathepsin K but rather was cleaved by the enzyme
